# System: peptide library, one residue held at a place counted from the S/T acceptor
# Assay: relative phosphorylation of the sub-library (ratio to the mean residue at this position); human; higher = residue favoured
# Conditions: L fixed; at +3
# Summary of the method: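 Human or orthologue kinase constructs, purified and recombinant, were incubated under kinase-specific conditions in 384-well plates with biotinylated degenerate peptide sub-libraries. Each sub-library fixed one residue at one position around a central Ser/Thr. Incubations lasted 90 min with peptides at 50 μM and 50 μM ATP spiked with γ-32P-ATP, after which spots on streptavidin membranes were phosphorimaged and quantified by densitometry. Relative sub-library phosphorylation is a ratio to the mean residue at that position.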
# Sequence of GRK2, construct: Full length (P25098 whole entry, looked up): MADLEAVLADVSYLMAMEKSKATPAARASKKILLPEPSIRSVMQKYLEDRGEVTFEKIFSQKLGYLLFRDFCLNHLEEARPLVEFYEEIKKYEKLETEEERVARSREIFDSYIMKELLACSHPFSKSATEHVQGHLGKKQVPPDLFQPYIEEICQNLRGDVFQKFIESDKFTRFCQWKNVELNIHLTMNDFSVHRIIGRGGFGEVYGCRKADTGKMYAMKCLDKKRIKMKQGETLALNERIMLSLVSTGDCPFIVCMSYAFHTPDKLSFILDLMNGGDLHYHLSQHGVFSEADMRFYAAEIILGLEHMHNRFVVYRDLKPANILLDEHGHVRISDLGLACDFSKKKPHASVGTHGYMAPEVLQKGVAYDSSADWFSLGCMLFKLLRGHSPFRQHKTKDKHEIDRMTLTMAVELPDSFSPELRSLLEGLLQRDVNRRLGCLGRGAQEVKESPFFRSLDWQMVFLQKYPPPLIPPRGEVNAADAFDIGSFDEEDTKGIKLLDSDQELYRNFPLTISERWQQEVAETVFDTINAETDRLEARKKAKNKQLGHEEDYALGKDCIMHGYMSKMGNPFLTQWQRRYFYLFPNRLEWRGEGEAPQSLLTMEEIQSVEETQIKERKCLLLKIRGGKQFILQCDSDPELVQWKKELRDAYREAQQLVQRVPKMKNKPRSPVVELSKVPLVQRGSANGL
# Sequence of TP53RK, construct: Full length (Q96S44 whole entry, looked up): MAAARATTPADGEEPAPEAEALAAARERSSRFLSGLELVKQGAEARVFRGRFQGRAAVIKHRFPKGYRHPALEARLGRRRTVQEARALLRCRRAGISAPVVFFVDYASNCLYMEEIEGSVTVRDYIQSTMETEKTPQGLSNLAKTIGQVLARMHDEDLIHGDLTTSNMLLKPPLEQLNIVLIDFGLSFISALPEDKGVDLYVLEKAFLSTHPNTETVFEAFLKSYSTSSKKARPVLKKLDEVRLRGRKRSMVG
# Sequence of SGK3, construct: aa119-end (Q96BR1 119-496, looked up): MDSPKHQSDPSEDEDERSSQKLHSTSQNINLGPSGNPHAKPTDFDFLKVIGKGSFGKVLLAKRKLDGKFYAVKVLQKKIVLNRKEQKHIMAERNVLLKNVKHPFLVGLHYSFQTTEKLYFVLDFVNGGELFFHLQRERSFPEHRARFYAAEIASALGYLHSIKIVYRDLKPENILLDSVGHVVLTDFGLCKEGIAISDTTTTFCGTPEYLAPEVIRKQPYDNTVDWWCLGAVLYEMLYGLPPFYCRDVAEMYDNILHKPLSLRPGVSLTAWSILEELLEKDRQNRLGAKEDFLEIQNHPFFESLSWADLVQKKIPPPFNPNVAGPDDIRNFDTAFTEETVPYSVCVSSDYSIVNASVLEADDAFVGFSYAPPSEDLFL
# Sequence of AURKB, construct: Full length (Q96GD4 whole entry, looked up): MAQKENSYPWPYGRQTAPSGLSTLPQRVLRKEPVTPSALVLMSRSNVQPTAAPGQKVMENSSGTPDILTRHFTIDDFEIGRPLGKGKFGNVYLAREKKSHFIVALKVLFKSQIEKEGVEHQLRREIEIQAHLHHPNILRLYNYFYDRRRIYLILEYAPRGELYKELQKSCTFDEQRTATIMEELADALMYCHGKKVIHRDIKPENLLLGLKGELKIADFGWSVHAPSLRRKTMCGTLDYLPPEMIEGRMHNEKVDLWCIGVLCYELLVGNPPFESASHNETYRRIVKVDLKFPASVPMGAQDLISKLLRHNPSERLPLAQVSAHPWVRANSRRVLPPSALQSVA
# Sequence of NEK11, construct: Full length (Q8NG66 whole entry, looked up): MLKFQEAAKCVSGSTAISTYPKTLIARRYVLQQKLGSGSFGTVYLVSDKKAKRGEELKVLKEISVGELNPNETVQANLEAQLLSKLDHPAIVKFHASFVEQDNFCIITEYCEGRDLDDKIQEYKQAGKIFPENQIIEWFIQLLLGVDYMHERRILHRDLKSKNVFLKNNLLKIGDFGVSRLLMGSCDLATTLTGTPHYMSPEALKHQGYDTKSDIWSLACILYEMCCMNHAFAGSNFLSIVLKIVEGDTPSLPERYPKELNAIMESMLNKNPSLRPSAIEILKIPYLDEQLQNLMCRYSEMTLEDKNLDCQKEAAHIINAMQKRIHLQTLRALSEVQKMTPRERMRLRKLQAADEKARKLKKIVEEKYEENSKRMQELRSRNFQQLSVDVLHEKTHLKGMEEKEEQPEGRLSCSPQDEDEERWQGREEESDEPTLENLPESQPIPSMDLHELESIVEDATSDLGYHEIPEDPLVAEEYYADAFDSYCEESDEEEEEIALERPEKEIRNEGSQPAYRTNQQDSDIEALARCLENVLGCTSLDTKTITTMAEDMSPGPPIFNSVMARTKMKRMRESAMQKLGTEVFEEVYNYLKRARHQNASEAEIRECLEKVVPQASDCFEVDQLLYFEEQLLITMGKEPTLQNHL
# Sequence of NEK4, construct: Full length (P51957 whole entry, looked up): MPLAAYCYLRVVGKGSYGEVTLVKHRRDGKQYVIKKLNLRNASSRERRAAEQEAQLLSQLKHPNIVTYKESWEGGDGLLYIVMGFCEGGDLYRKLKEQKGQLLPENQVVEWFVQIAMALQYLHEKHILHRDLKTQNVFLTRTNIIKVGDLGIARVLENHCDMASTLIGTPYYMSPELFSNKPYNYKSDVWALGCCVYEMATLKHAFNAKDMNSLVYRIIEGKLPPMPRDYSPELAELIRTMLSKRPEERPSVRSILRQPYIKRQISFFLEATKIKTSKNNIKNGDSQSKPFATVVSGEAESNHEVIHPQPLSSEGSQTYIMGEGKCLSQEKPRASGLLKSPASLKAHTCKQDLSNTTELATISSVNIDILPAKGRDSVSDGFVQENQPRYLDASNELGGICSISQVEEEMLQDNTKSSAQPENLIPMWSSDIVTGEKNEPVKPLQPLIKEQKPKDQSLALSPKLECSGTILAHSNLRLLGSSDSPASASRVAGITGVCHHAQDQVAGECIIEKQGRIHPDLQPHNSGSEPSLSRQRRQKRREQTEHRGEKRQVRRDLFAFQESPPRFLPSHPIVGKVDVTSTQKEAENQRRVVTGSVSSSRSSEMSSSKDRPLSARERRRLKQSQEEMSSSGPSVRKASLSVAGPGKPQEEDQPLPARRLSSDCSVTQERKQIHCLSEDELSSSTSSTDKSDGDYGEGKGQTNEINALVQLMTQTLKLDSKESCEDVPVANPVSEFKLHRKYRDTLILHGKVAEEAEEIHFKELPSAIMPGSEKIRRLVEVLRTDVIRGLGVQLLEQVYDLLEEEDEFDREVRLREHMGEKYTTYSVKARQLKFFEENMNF
# Sequence of GRK7, construct: Full length (Q8WTQ7 whole entry, looked up): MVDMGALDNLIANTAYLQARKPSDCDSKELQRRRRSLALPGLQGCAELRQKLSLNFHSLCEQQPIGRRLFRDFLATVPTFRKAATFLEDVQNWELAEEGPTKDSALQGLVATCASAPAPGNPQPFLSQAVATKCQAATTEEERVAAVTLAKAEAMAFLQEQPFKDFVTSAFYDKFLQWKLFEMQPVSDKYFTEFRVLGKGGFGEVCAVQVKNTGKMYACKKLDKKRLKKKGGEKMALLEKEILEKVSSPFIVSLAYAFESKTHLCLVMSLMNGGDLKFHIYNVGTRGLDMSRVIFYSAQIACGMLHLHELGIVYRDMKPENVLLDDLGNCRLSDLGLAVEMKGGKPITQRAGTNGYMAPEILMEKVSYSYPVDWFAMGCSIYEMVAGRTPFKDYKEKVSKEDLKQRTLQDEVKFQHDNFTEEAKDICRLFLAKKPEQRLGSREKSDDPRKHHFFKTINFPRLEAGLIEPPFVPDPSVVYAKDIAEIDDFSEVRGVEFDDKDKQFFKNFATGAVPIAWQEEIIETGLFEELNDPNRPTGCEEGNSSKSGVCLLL
row,Substance,relative phosphorylation
1,"SGK3, construct: aa119-end (from UniProt Q96BR1)",1.06
2,"GRK7, construct: Full length (from UniProt Q8WTQ7)",0.581

# Same assay, conditions: L fixed; at +4
row,Substance,relative phosphorylation
1,"NEK11, construct: Full length (from UniProt Q8NG66)",0.805
2,"MKNK1, construct: Full length (D165-205) (from UniProt Q9BUB5)",0.722
3,"TP53RK, construct: Full length (from UniProt Q96S44)",0.862
4,"GRK2, construct: Full length (from UniProt P25098)",0.935
5,"NEK4, construct: Full length (from UniProt P51957)",0.996
6,"AURKB, construct: Full length (from UniProt Q96GD4)",0.989
7,"SGK3, construct: aa119-end (from UniProt Q96BR1)",0.823
8,"GRK7, construct: Full length (from UniProt Q8WTQ7)",0.818

# Same assay, conditions: L fixed; at -1
row,Substance,relative phosphorylation
1,"NEK11, construct: Full length (from UniProt Q8NG66)",0.914
2,"MKNK1, construct: Full length (D165-205) (from UniProt Q9BUB5)",0.602
3,"TP53RK, construct: Full length (from UniProt Q96S44)",1.03
4,"GRK2, construct: Full length (from UniProt P25098)",0.928
5,"NEK4, construct: Full length (from UniProt P51957)",1.06
6,"AURKB, construct: Full length (from UniProt Q96GD4)",1.23
7,"SGK3, construct: aa119-end (from UniProt Q96BR1)",0.799
8,"GRK7, construct: Full length (from UniProt Q8WTQ7)",0.621

# Same assay, conditions: L fixed; at -2
row,Substance,relative phosphorylation
1,"NEK11, construct: Full length (from UniProt Q8NG66)",0.975
2,"MKNK1, construct: Full length (D165-205) (from UniProt Q9BUB5)",0.519
3,"TP53RK, construct: Full length (from UniProt Q96S44)",0.981
4,"GRK2, construct: Full length (from UniProt P25098)",0.832
5,"NEK4, construct: Full length (from UniProt P51957)",1.61
6,"AURKB, construct: Full length (from UniProt Q96GD4)",0.25
7,"SGK3, construct: aa119-end (from UniProt Q96BR1)",0.412
8,"GRK7, construct: Full length (from UniProt Q8WTQ7)",0.548

# Same assay, conditions: L fixed; at -3
row,Substance,relative phosphorylation
1,"NEK11, construct: Full length (from UniProt Q8NG66)",1.12
2,"MKNK1, construct: Full length (D165-205) (from UniProt Q9BUB5)",0.394
3,"TP53RK, construct: Full length (from UniProt Q96S44)",0.815
4,"GRK2, construct: Full length (from UniProt P25098)",0.742
5,"NEK4, construct: Full length (from UniProt P51957)",1.9
6,"AURKB, construct: Full length (from UniProt Q96GD4)",0.554
7,"SGK3, construct: aa119-end (from UniProt Q96BR1)",0.307
8,"GRK7, construct: Full length (from UniProt Q8WTQ7)",0.534

# Same assay, conditions: L fixed; at -4
row,Substance,relative phosphorylation
1,"NEK11, construct: Full length (from UniProt Q8NG66)",0.945
2,"MKNK1, construct: Full length (D165-205) (from UniProt Q9BUB5)",0.751
3,"TP53RK, construct: Full length (from UniProt Q96S44)",0.792
4,"GRK2, construct: Full length (from UniProt P25098)",0.899
5,"NEK4, construct: Full length (from UniProt P51957)",1.12
6,"AURKB, construct: Full length (from UniProt Q96GD4)",0.738
7,"SGK3, construct: aa119-end (from UniProt Q96BR1)",0.809
8,"GRK7, construct: Full length (from UniProt Q8WTQ7)",0.54

# Same assay, conditions: L fixed; at -5
row,Substance,relative phosphorylation
1,"NEK11, construct: Full length (from UniProt Q8NG66)",0.763
2,"MKNK1, construct: Full length (D165-205) (from UniProt Q9BUB5)",1.2
3,"TP53RK, construct: Full length (from UniProt Q96S44)",0.86
4,"GRK2, construct: Full length (from UniProt P25098)",0.88
5,"NEK4, construct: Full length (from UniProt P51957)",0.79
6,"AURKB, construct: Full length (from UniProt Q96GD4)",0.779
7,"SGK3, construct: aa119-end (from UniProt Q96BR1)",0.72
8,"GRK7, construct: Full length (from UniProt Q8WTQ7)",0.589

# Same assay, conditions: M fixed; at +1
row,Substance,relative phosphorylation
1,"NEK11, construct: Full length (from UniProt Q8NG66)",2.27
2,"MKNK1, construct: Full length (D165-205) (from UniProt Q9BUB5)",1.86
3,"TP53RK, construct: Full length (from UniProt Q96S44)",0.979
4,"GRK2, construct: Full length (from UniProt P25098)",1.08
5,"NEK4, construct: Full length (from UniProt P51957)",2.2
6,"AURKB, construct: Full length (from UniProt Q96GD4)",1.59
7,"SGK3, construct: aa119-end (from UniProt Q96BR1)",1.88
8,"GRK7, construct: Full length (from UniProt Q8WTQ7)",0.899

# Same assay, conditions: M fixed; at +2
row,Substance,relative phosphorylation
1,"NEK11, construct: Full length (from UniProt Q8NG66)",1.06
2,"MKNK1, construct: Full length (D165-205) (from UniProt Q9BUB5)",0.997
3,"TP53RK, construct: Full length (from UniProt Q96S44)",0.926
4,"GRK2, construct: Full length (from UniProt P25098)",0.965
5,"NEK4, construct: Full length (from UniProt P51957)",1.04
6,"AURKB, construct: Full length (from UniProt Q96GD4)",0.864
7,"SGK3, construct: aa119-end (from UniProt Q96BR1)",1.14
8,"GRK7, construct: Full length (from UniProt Q8WTQ7)",0.689

# Same assay, conditions: M fixed; at +3
row,Substance,relative phosphorylation
1,"NEK11, construct: Full length (from UniProt Q8NG66)",1.2
2,"MKNK1, construct: Full length (D165-205) (from UniProt Q9BUB5)",0.886
3,"TP53RK, construct: Full length (from UniProt Q96S44)",0.959
4,"GRK2, construct: Full length (from UniProt P25098)",0.981
5,"NEK4, construct: Full length (from UniProt P51957)",1.07
6,"AURKB, construct: Full length (from UniProt Q96GD4)",0.901
7,"SGK3, construct: aa119-end (from UniProt Q96BR1)",1.04
8,"GRK7, construct: Full length (from UniProt Q8WTQ7)",0.401

# Same assay, conditions: M fixed; at +4
row,Substance,relative phosphorylation
1,"NEK11, construct: Full length (from UniProt Q8NG66)",0.824
2,"MKNK1, construct: Full length (D165-205) (from UniProt Q9BUB5)",0.805
3,"TP53RK, construct: Full length (from UniProt Q96S44)",0.879
4,"GRK2, construct: Full length (from UniProt P25098)",0.975
5,"NEK4, construct: Full length (from UniProt P51957)",0.932
6,"AURKB, construct: Full length (from UniProt Q96GD4)",1.06
7,"SGK3, construct: aa119-end (from UniProt Q96BR1)",0.92
8,"GRK7, construct: Full length (from UniProt Q8WTQ7)",0.658

# Same assay, conditions: M fixed; at -1
row,Substance,relative phosphorylation
1,"NEK11, construct: Full length (from UniProt Q8NG66)",1.42
2,"MKNK1, construct: Full length (D165-205) (from UniProt Q9BUB5)",0.619
3,"TP53RK, construct: Full length (from UniProt Q96S44)",1.04
4,"GRK2, construct: Full length (from UniProt P25098)",0.971

# From the supplement of paper PMC9876800
